Our source for the abundance fitness values is the Human Domainome abundance scans (Beltran et al. 2025).

± gives the uncertainty stated by the source.

To fix the notation:
B1: Histone-lysine N-methyltransferase SETD2, residues 2382 to 2430; numbered along this chain, Q9BYW2 (parent)
chain: SPPKPKTIVLPPNWKTARDPEGKIYYYHVITRQTQWDPPTWESPGDDAS
B2: Unconventional myosin-Ie, residues 1051 to 1108; numbered along this chain, Q12965 (parent)
chain: PQVPQCKALYAYDAQDTDELSFNANDIIDIIKEDPSGWWTGRLRGKQGLFPNNYVTKI

Variants of B1 are the subject of the first data set. Nature of the data set: abundance fitness (aPCA) (normalised: wild type 0, dead -1); higher = more abundant; growth selection in yeast, the domain comes from the species named. The settings on record: Homo sapiens.
As for SPPKPKTIVLPPNWKTARDPEGKIYYYHVITRQTQWDPPTWESPGDDVS, the abundance fitness is -0.164 ± 0.057.
On the same count and under the same terms, for SPPKPKTIVLPPNWKTARDPEGKIYYYHVITRQTQWDPPTWESPGDDKS the value was 0.091 ± 0.047; for SPPKPKTIVLPPNWKTARDPEGKIYYYHVITRQTQWDPPTWESPGDDTS, 0.147 ± 0.041.
On the same count and under the same terms, the same measure for SPPKPKTIVLPPNWKTARDPEGKIYYYHVITRQTQWDPPTWESPGDDWS: -0.07 ± 0.072; for SPPKPKTIVLPPNWKTARDPEGKIYYYHVITRQTQWDPPTWESPGDDPS: 0.08 ± 0.072; for SPPKPKTIVLPPNWKTARDPEGKIYYYHVITRQTQWDPPTWESPGDDFS: -0.094 ± 0.068.
As to SPPKPKTIVLPPNWKTARDPEGKIYYYHVITRQTQWDPPTWESPGDDDS, the abundance fitness stood at 0.1 ± 0.12.
On to SPPKPKTIVLPPNWKTARDPEGKIYYYHVITRQTQWDPPTWESPGDDMS, for which the abundance fitness turned out to be 0.151 ± 0.09.
Still for that read-out and setting: for SPPKPKTIVLPPNWKTARDPEGKIYYYHVITRQTQWDPPTWESPGDDNS the value was 0.153 ± 0.097; for SPPKPKTIVLPPNWKTARDPEGKIYYYHVITRQTQWDPPTWESPGDDLS, -0.077 ± 0.056; for SPPKPKTIVLPPNWKTARDPEGKIYYYHVITRQTQWDPPTWESPGDDGS, -0.014 ± 0.054.
Regarding SPPKPKTIVLPPNWKTARDPEGKIYYYHVITRQTQWDPPTWESPGDDSS, the abundance fitness is -0.027 ± 0.067.
In the case of SPPKPKTIVLPPNWKTARDPEGKIYYYHVITRQTQWDPPTWESPGDDQS, the abundance fitness was -0.153 ± 0.1.
On the same count and under the same terms, the same measure for SPPKPKTIVLPPNWKTARDPEGKIYYYHVITRQTQWDPPTWESPGDDHS: -0.081 ± 0.14; for SPPKPKTIVLPPNWKTARDPEGKIYYYHVITRQTQWDPPTWESPGDDES: 0.1 ± 0.036.
Regarding SPPKPKTIVLPPNWKTARDPEGKIYYYHVITRQTQWDPPTWESPGDDRS, the abundance fitness is 0.107 ± 0.057.
The same measure, in the same setting: the same measure for SPPKPKTIVLPPNWKTARDPEGKIYYYHVITRQTQWDPPTWESPGDDCS: 0.085 ± 0.044.
Same read-out and setting: for SPPKPKTIVLPPNWKTARDPEGKIYYYHVITRQTQWDPPTWESPGDDYS the value was 0.036 ± 0.048; for SPPKPKTIVLPPNWKTARDPEGKIYYYHVITRQTQWDPPTWESPWDDAS, 0.026 ± 0.054.
Same read-out and setting: the same measure for SPPKPKTIVLPPNWKTARDPEGKIYYYHVITRQTQWDPPTWESPVDDAS: -0.177 ± 0.059.
For SPPKPKTIVLPPNWKTARDPEGKIYYYHVITRQTQWDPPTWESPRDDAS, the abundance fitness came out at 0.035 ± 0.047.
For the variant SPPKPKTIVLPPNWKTARDPEGKIYYYHVITRQTQWDPPTWESPQDDAS, the abundance fitness is -0.313 ± 0.089.
Still for that read-out and setting: the same measure for SPPKPKTIVLPPNWKTARDPEGKIYYYHVITRQTQWDPPTWESPSDDAS: 0.025 ± 0.04.
On the same count and under the same terms, for SPPKPKTIVLPPNWKTARDPEGKIYYYHVITRQTQWDPPTWESPYDDAS the value was 0.049 ± 0.081; for SPPKPKTIVLPPNWKTARDPEGKIYYYHVITRQTQWDPPTWESPTDDAS, -0.141 ± 0.073.

The variants in another data set derive from B2. Described as above. Conditions: Homo sapiens.
Regarding PGVPQCKALYAYDAQDTDELSFNANDIIDIIKEDPSGWWTGRLRGKQGLFPNNYVTKI, the abundance fitness is -0.102 ± 0.054.
On the same count and under the same terms, the same measure for PAVPQCKALYAYDAQDTDELSFNANDIIDIIKEDPSGWWTGRLRGKQGLFPNNYVTKI: -0.091 ± 0.036; for PMVPQCKALYAYDAQDTDELSFNANDIIDIIKEDPSGWWTGRLRGKQGLFPNNYVTKI: 0.153 ± 0.061; for PHVPQCKALYAYDAQDTDELSFNANDIIDIIKEDPSGWWTGRLRGKQGLFPNNYVTKI: -0.208 ± 0.34.
The same measure, in the same setting: the same measure for PIVPQCKALYAYDAQDTDELSFNANDIIDIIKEDPSGWWTGRLRGKQGLFPNNYVTKI: -0.176 ± 0.16; for PEVPQCKALYAYDAQDTDELSFNANDIIDIIKEDPSGWWTGRLRGKQGLFPNNYVTKI: -0.193 ± 0.079; for PDVPQCKALYAYDAQDTDELSFNANDIIDIIKEDPSGWWTGRLRGKQGLFPNNYVTKI: 0.01 ± 0.091.
PLVPQCKALYAYDAQDTDELSFNANDIIDIIKEDPSGWWTGRLRGKQGLFPNNYVTKI: the abundance fitness is -0.106 ± 0.07.
For PFVPQCKALYAYDAQDTDELSFNANDIIDIIKEDPSGWWTGRLRGKQGLFPNNYVTKI, the abundance fitness is -0.597 ± 0.46.
Consider PKVPQCKALYAYDAQDTDELSFNANDIIDIIKEDPSGWWTGRLRGKQGLFPNNYVTKI, for which the abundance fitness was -0.09 ± 0.069.
The same measure, in the same setting: the same measure for PNVPQCKALYAYDAQDTDELSFNANDIIDIIKEDPSGWWTGRLRGKQGLFPNNYVTKI: 0.068 ± 0.1; for PCVPQCKALYAYDAQDTDELSFNANDIIDIIKEDPSGWWTGRLRGKQGLFPNNYVTKI: -0.193 ± 0.13.
Same read-out and setting: for LQVPQCKALYAYDAQDTDELSFNANDIIDIIKEDPSGWWTGRLRGKQGLFPNNYVTKI the value was 0.072 ± 0.069; for TQVPQCKALYAYDAQDTDELSFNANDIIDIIKEDPSGWWTGRLRGKQGLFPNNYVTKI, 0.057 ± 0.05.
The same measure, in the same setting: for KQVPQCKALYAYDAQDTDELSFNANDIIDIIKEDPSGWWTGRLRGKQGLFPNNYVTKI the value was 0.169 ± 0.23.
As to AQVPQCKALYAYDAQDTDELSFNANDIIDIIKEDPSGWWTGRLRGKQGLFPNNYVTKI, the abundance fitness amounted to 0.03 ± 0.074.
On the same count and under the same terms, for WQVPQCKALYAYDAQDTDELSFNANDIIDIIKEDPSGWWTGRLRGKQGLFPNNYVTKI the value was -0.237 ± 0.11.
For the variant HQVPQCKALYAYDAQDTDELSFNANDIIDIIKEDPSGWWTGRLRGKQGLFPNNYVTKI, the abundance fitness stood at 0.305 ± 0.39.
Consider GQVPQCKALYAYDAQDTDELSFNANDIIDIIKEDPSGWWTGRLRGKQGLFPNNYVTKI, for which the abundance fitness is -0.198 ± 0.065.
Turning to VQVPQCKALYAYDAQDTDELSFNANDIIDIIKEDPSGWWTGRLRGKQGLFPNNYVTKI, the abundance fitness is 0.027 ± 0.053.
Still for that read-out and setting: for QQVPQCKALYAYDAQDTDELSFNANDIIDIIKEDPSGWWTGRLRGKQGLFPNNYVTKI the value was 0.05 ± 0.093; for EQVPQCKALYAYDAQDTDELSFNANDIIDIIKEDPSGWWTGRLRGKQGLFPNNYVTKI, -0.144 ± 0.16; for RQVPQCKALYAYDAQDTDELSFNANDIIDIIKEDPSGWWTGRLRGKQGLFPNNYVTKI, -0.362 ± 0.092.
The same measure, in the same setting: for CQVPQCKALYAYDAQDTDELSFNANDIIDIIKEDPSGWWTGRLRGKQGLFPNNYVTKI the value was -0.374 ± 0.26; for SQVPQCKALYAYDAQDTDELSFNANDIIDIIKEDPSGWWTGRLRGKQGLFPNNYVTKI, 0.006 ± 0.089; for DQVPQCKALYAYDAQDTDELSFNANDIIDIIKEDPSGWWTGRLRGKQGLFPNNYVTKI, -0.164 ± 0.2.
